Data taken from the supplement of paper PMC9112550, “Optimization of the antimicrobial peptide Bac7 by deep mutational scanning” (BMC Biology, 2022).

tested on: Escherichia coli TOP10; experiment: shrunken log2 fold change of peptide-encoding DNA abundance (4.5 h post-induction vs induction); higher = less antimicrobial activity (less host growth inhibition); conditions: time post-induction: 4.5 h; library: site-saturation at positions 5, 18, 19, 20
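Note: peptides expressed intracellularly from a pBAD plasmid library in pooled LB shake-flask culture, induced with 0.3% L-arabinose, DNA abundance read by NGS, three biological replicates, DESeq2 with apeglm shrinkage.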

| Sequence | shrunken log2 fold change |
| --- | --- |
| RRIRDRPPRLPRPRPRPIMPPRP | -0.0491 |
| RRIRSRPPRLPRPRPRPIRGPRP | -0.0109 |
| RRIRDRPPRLPRPRPRPQARPRP | 1.05 |
| RRIRIRPPRLPRPRPRPMCDPRP | -0.356 |
| RRIRPRPPRLPRPRPRPTEHPRP | -0.1 |
| RRIRNRPPRLPRPRPRPKGEPRP | -0.00804 |
| RRIRPRPPRLPRPRPRPHGVPRP | -0.104 |
| RRIRPRPPRLPRPRPRPQSVPRP | -0.0354 |
| RRIRDRPPRLPRPRPRPYATPRP | 0.0348 |
| RRIRNRPPRLPRPRPRPETYPRP | -0.554 |
| RRIRQRPPRLPRPRPRPGRFPRP | 0.363 |
| RRIRHRPPRLPRPRPRPHQRPRP | 0.0129 |
| RRIRTRPPRLPRPRPRPMGKPRP | 0.0179 |
| RRIRERPPRLPRPRPRPRPLPRP | 0.176 |
| RRIRGRPPRLPRPRPRPGSAPRP | 0.972 |
| RRIRRRPPRLPRPRPRPTETPRP | 0.137 |
| RRIRTRPPRLPRPRPRPYTWPRP | -0.465 |
| RRIRWRPPRLPRPRPRPQDNPRP | -0.421 |
| RRIRLRPPRLPRPRPRPQFSPRP | -0.907 |
| RRIRFRPPRLPRPRPRPIKGPRP | -0.248 |
| RRIRMRPPRLPRPRPRPNYMPRP | 1.06 |
| RRIRYRPPRLPRPRPRPEWYPRP | -0.00146 |
| RRIRFRPPRLPRPRPRPSFIPRP | -0.831 |
| RRIRLRPPRLPRPRPRPQIVPRP | -0.0529 |
| RRIRNRPPRLPRPRPRPSEFPRP | -0.109 |

| Sequence | shrunken log2 fold change |
| --- | --- |
| RRIRYRPPRLPRPRPRPTRKPRP | 0.00746 |
| RRIRMRPPRLPRPRPRPMFPPRP | 0.164 |
| RRIRRRPPRLPRPRPRPHMPPRP | -0.037 |
| RRIRRRPPRLPRPRPRPPVPPRP | 0.753 |
| RRIRTRPPRLPRPRPRPWDWPRP | 0.00763 |
| RRIRWRPPRLPRPRPRPVWSPRP | 0.163 |
| RRIRPRPPRLPRPRPRPLNNPRP | -0.541 |
| RRIRLRPPRLPRPRPRPMVPPRP | 0.096 |
| RRIRNRPPRLPRPRPRPWINPRP | -0.0185 |
| RRIRYRPPRLPRPRPRPWYHPRP | -0.0547 |
| RRIRRRPPRLPRPRPRPPVNPRP | 0.282 |
| RRIRQRPPRLPRPRPRPQRPPRP | 0.0996 |
| RRIRARPPRLPRPRPRPCGYPRP | 0.0562 |
| RRIRQRPPRLPRPRPRPNSPPRP | -0.0178 |
| RRIRDRPPRLPRPRPRPNHLPRP | 0.000895 |
| RRIRNRPPRLPRPRPRPLCVPRP | -0.197 |
| RRIRWRPPRLPRPRPRPHTHPRP | -0.268 |
| RRIRRRPPRLPRPRPRPAWTPRP | 1.74 |
| RRIRLRPPRLPRPRPRPIGFPRP | 0.0709 |
| RRIRRRPPRLPRPRPRPFSCPRP | 0.082 |
| RRIRLRPPRLPRPRPRPAHSPRP | 0.0693 |
| RRIRHRPPRLPRPRPRPWKNPRP | -0.187 |
| RRIRFRPPRLPRPRPRPIMVPRP | -0.104 |
| RRIRRRPPRLPRPRPRPIPAPRP | 0.804 |
| RRIRQRPPRLPRPRPRPWHRPRP | -0.0346 |

| Sequence | shrunken log2 fold change |
| --- | --- |
| RRIRLRPPRLPRPRPRPNREPRP | -0.118 |
| RRIRVRPPRLPRPRPRPRQHPRP | 0.174 |
| RRIRYRPPRLPRPRPRPGINPRP | -0.227 |
| RRIRWRPPRLPRPRPRPEWAPRP | 0.497 |
| RRIRDRPPRLPRPRPRPMSDPRP | 1.13 |
| RRIRERPPRLPRPRPRPNIMPRP | -0.444 |
| RRIRWRPPRLPRPRPRPYAEPRP | 0.258 |
| RRIRHRPPRLPRPRPRPNFLPRP | -0.322 |
| RRIRKRPPRLPRPRPRPRWPPRP | 0.528 |
| RRIRTRPPRLPRPRPRPSFTPRP | -0.867 |
| RRIRWRPPRLPRPRPRPRMQPRP | 0.329 |
| RRIRMRPPRLPRPRPRPDYCPRP | -0.369 |
| RRIRTRPPRLPRPRPRPWCTPRP | -0.275 |
| RRIRCRPPRLPRPRPRPSYLPRP | -1 |
| RRIRKRPPRLPRPRPRPKWAPRP | 0.0446 |
| RRIRYRPPRLPRPRPRPCSKPRP | -0.012 |
| RRIRERPPRLPRPRPRPPIHPRP | -0.502 |
| RRIRRRPPRLPRPRPRPDMGPRP | 0.00408 |
| RRIRCRPPRLPRPRPRPMRTPRP | 0.962 |
| RRIRYRPPRLPRPRPRPTSGPRP | 0.0452 |
| RRIRGRPPRLPRPRPRPLCPPRP | 0.422 |
| RRIRWRPPRLPRPRPRPGNDPRP | 0.895 |
| RRIRNRPPRLPRPRPRPLWIPRP | -0.286 |
| RRIRVRPPRLPRPRPRPMDKPRP | -0.278 |
| RRIRLRPPRLPRPRPRPHDEPRP | 0.0746 |
